21 sequences from the DeepSol protein solubility set can be followed below.

The nature of this series: soluble on expression in E. coli; label from the status in PepcDB or PDB records.
As to “MRLLVAFAVIYFISISPVCAENTASTINIPTPAIESPLASKSLLLDISLIGQEKLVTVGQHGHILLSNDGKKWQQANVPVQVTLTNVFFLNEQLGWAVGHDATILHSQDGGLNWQVQQYLPLLEKPLFDIYFKNPQQGIAVGAYGQVFRTNDGGSTWQNEFHQEILLADDVEYLNELKAEDEAAYLDEITFILPHFNRLVQDGGSLFLLGETGLLAKSDDFGLTWQQFDNFYQGSFFSLARTKTGNVLVAGLRGHVFRSLNHGSQWDEVPTNTTALLNDIVFANDERIFILGNNGMLLISTDDGESFSKIPQQDGKTLIAGVWFKGQLIAVSDVGIKVVDLSQELEHHHHHH”, the “soluble on expression in E. coli” value was “not soluble”. The result for “MGSDKIHHHHHHMYRAVIFDFDGTIIDTEQHLFNVINKHLEMHNADPISIDFYRSSIGGAATDLHDHLIKAIGSENKDKLYEEHHLTSTTLPMIDTIKSLMAFLKQRHIPMAIATSSVKAEIMPTFKALGLDDYIEVVVGREDVEQVKPDPELYLSAVQQLNYMPTQCLAIEDSVNGATAAIAAGLDVIVNTNKMTSAQDFSNVDYVAKDIDYDQIVARFFTK” reads “not soluble”; that for “MSLKLVKPKKFLGQHFLKDLKVAQDIADTVDTFPELPVLEVGPGMGVLTQFLVKKDRLVKVVEVDYESVAYLREAYPSLEDHIIEDDFLKMNLHRLFDGKPFVLTGNYPYNISSQIFFKMLENKDIIPCCTGMIQKEVAERIAAGPGSKTYGILSVLIQAWYKVEYLFTVSEHVFNPPPKVKSAVIRMTRNDTKEGHHHHHH”, “not soluble”; that for “SLTHYKYYEANVETNQVLVFLHGFLSDSRTYHNHIEKFTDNYHVITIDLPGHGEDQSSMDETWNFDYITTLLDRILDKYKDKSITLFGYSMGGRVALYYAINGHIPISNLILESTSPGIKEEANQLERRLVDDARAKVLDIAGIELFVNDWEKLPLFQSQLELPVEIQHQIRQQRLSQSPHKMAKALRDYGTGQMPNLWPRLKEIKVPTLILAGEYDEKFVQIAKKMANLIPNSKCKLISATGHTIHVEDSDEFDTMILGFLKEEQND”, “soluble”. With “MKINTALGVAAGKSAHYLLSKMGRGSTYPGSLALKFDKDILDTIAKDYEIVVVTGTNGKTLTTALTVGILKEAFGQVVTNPSGANMITGIVSTFLTAKKSKSGKKIAVLEIDEASLPRITQYIKPSLFVFTNIFRDQMDRYGEIYTTYQMILDGAANAPQATILANGDSPLFNSKSVTNPVQFYGFNTDKHEPRLAHYNTEGILCPKCQAILTYRLNTYANLGDYTCPNCDFERPNLDYALTRLTHLTNTSSGFVIDGQQYNINVGGLYNIYNALAAVSVAEYFGVEPSQIKDGFDKSRAVFGRQETFTIGNKKCTLVLIKNPVGASQALDMIKLAPYPFSLSVLLNANYADGIDTSWIWDANFETILTMNIPEIFAGGVRHSEIARRLRVTGYDEKRIKQADKLQDIMTMIEQQETEHAYILATYTAMLEFREILANHNAIRKEMN” the entry was “not soluble”; with “GKHTVPYTISVDGITALHRTYFVFPENKKVLYQEIDSKVKNELASQRGVTTEKINNAQTATYTLTLNDGNKKVVNLKKNDDAKNSIDPSTIKQIQIVVK”, “soluble”; with “MWGQTNMADKKSPLIAVSVGEASGDLLGAHLIRAIRKRCPQARFTGIGGELMKAEGFESLYDQERLAVRGFVEVVRRLPEILRIRRGLVRDLLSLKPDVFVGIDAPDFNLGVAEKLKRSGIPTVHYVSPSVWAWRRERVGKIVHQVNRVLCLFPMEPQLYLDAGGRAEFVGHPMAQLMPLEDDRETARQTLGVDAGIPVFALLPGSRVSEIDYMAPVFFQTALLLLERYPAARFLLPAATEATKRRLAEVLQRPEFAGLPLTVIDRQSETVCRAADAVLVTSGTATLEVALCKRPMVISYKISPLTYAYVKRKIKVPHVGLPNILLGKEAVPELLQSEAKPEKLAAALADWYEHPDKVAALQQDFRALHLLLKKDTADLAARAVLEEAGC”, “not soluble”. On to “MAHHHHHHMGDAENNENDKKCLWVPDEEVTNCYSCNAFFNVRVRKHHCRACGNVFCSNCSDNKIKISEYSYAEKVRVCDRCFMERSSPQTLLLQEDLGARKQINQDLKKALSEKMAIVERFKTFLLEFDSEILNNSDHADGSNDVMSLLKRGEKGLKDLNDKIRNYDSIIENQKKELEHLKREKEQKTELNKILHLRNHEIQQKNMNIKNLVKEKNELTLVKEESEGIIHSYKKQVEKLIIRCNQLELEKKRKNYTDQSSNYSFTNSSSQSYMMNSYRLPQNEMSVSYTVAQGPSDDPEEENCCNYCQRRVCSIM”, for which the “soluble on expression in E. coli” value is given as “not soluble”. With “MGSDKIHHHHHHMKITLNSVSFRYNGDYVLKDVNAEFETGKIYVVVGKNGSGKTTLLKILAGLLEAEGEIFLDGSPADPFLLRKNVGYVFQNPSSQIIGATVEEDVAFSLEIMGLDESEMRKRIKKVLELVGLSGLEKEDPLNLSGGQKQRLAIASMLARDTRFLALDEPVSMLDPPSQREIFQVLESLKNEGKGIILVTHELEYLDDMDFILHISNGTIDFCGSWEEFVEREFDDVEIPFKWKLWKKCGKINLWEDRYENSGNQRRRDTV” the entry was “not soluble”; with “MANRLRTGIDVLDRKLDGGIPAGSIVVLSAQPASQAELFLYELTATRGTLWLSLDRTAESVIASIEQTPANTGDPTVRHISGEAPLDNAGKLVSALPETSNLIVDPLDVLEAQEPHSRFRAFMNDLQNHIVNTGSLAIVHCLDGRDVPPLRDTTEHFADVVFQLNTTTNGDEVENRLAIPKFRGGRAPTDIIKLNLVEEVSIDTSRDIALEHHHHHH”, “not soluble”; with “MPASSTSSPSSKEEDEKHTSADEDVTPTASPSLVKSEVVKEEENDDADRTLTMPSTSQDIQPESSPAHGRSAPSSQEITSPPTVRRVATPLEAAEQEYYYFTTDMINQAALDIEREKEKFDSLITWYKLQRDDVPALGTSSVGNSTAPSYVSEKGSTTPMSSQPSSHQSGTSSTNGAHGGLNGFSCSPFGLENNPRSNDPMQCMSSPVELDEICPTLEDFMSSAASSSTPSTSSAPQMNQNQNTHPNSINHHHQPDTSLLMLNNHHSSPLNQLSFNHQMPSTSNSNPPSNASLKRRATEEFGNDGPMKQAKIEGSENDNNPMRKLEMMANSSNFRGGNTINEVVEASKKDERTLKMEKLDVIGKSVGEEFAQQAREAQMRQMQQAAAAAGSMPPSYPSPGQYPGPMHYPGMPPMMPPGAPFSAGASYPPMGGPFPPNPYGMHPGMTPGGYPMSAPGKMPFGSPSFPQSAPSPAAMAAMQQGRMPGPPMPPHMMTPQQQQHFMQMQQAQMAHFNAQKAAAAAAAAGMSPAARASPMGASPSPHHPHPSQFPPNHPANPMYHHHIMMMRAMHAQGGQPGHPGMMPPGMMPPGMMPPGMMPPGMHPGMAGMPPMHPGMQGMPPMHPGMQGMPGMPHGPPQPPQNPALMVAGNRAGSAEAAAAQMGNPHHPMMGANMWQLTPHYPPPLPASSSSGAGTPVSR”, “not soluble”. Regarding “MGSDKIHHHHHHMTGTTENDNTGEDEKPKDEECAAIEHKDKFNPTAYLNSFYKTASEDTAMQIVLFFLPGILYRLPQKVRSVLDLGAGPTVYLPISLRDRAENIYTSDYAPANRDTLINWIEDKSDFDWDNVCSWIANIEASMETGKQMQNKTRKLMRAVLDVNVHESPVVQSIVWKENEQVQVPDKFQVVSTVFCLEYSCETLEAYFRAVRSACSLIDEGGILIQGGVLDATTYNFGGKTFRCHRLKQAHIIESLKANGMATTAEQGYKFITHDDIFLLVSKKL”, the “soluble on expression in E. coli” value is “not soluble”. The result for “MTPTLETKYVFTITARIGDVTSAGEIGTGVRRIIPILGGEVKGEGISGQVLPFGADFQIIRPNELIELEAKYAFETDDGAVVYVENVGIRFGPVELLRKLKRGEPVDPKVIYFRTRPRFETGHPNYQWLMQYLFVGSAARHADRVVIDVHQVL” reads “soluble”. With “MGSDKIHHHHHHMDTRTLIYLHQYFSIPTVSGGTRSWEFSTRLVQDKWQVCMFCGDSEIHGIPAVNILKLFNTKNVSFKLNVIPLKYSNYMSFSRRIFAFLSFAVRSSLQVLREEKADLTFATSTPLTIAIPALLRKWLHGTPYIFEVRDLWPEMPIAMKAVRSPLAIFLARQLELIAYQNASHIVALSPGMKEGIVKQGISPEKVEVIPNACDNARFNISETIGLEFLRQHPELSGGPLIVYTGTFGHINGVNYLAYLASHMRNIIPEAKFLVVGSGVCESEVREASCQLGILEKNFWMWPPIPKAEMPALLSACTVATSLFKPIPEMEHNSANKFFDALAAGRPVVINYGGWQKEILEQSGAGISISSNDPKVAAIQLAKFLNSSECLQSAQAAARKLADTVFDRDILYKKLANVFQKVLNETHSDI” the entry was “not soluble”; with “MYEAGTVEWRLTMVYLEQFRFPDAEVEFDFFLRQKRTCYDTYYPFQILSKHRFEQIDFEPVTILYGGNGTGKSTVLNIIAQKLHLLREAPFNQSSFYEDYLELCSFESAAHLPKDSRIITSDDVFDYMLNIRNLNEGIDRKREMLFEEYLDTKFAKFRMKSLDDYEQLKRVNNARRKTQSQFIRSELMDNVREYSNGESAFLYFTEKVTENALFLLDEPENSLSPAKQQELVKFIEDSARFFGCQFVIATHSPFVLAIRGAKIYDLDEEPVDVKRWTELENVRAYYDFFKKHASEF”, “not soluble”; with “MAHHHHHHMVFYSFVLVMKPRQRRFTSQALREIGVAVYSNGGLIRSITNEGIMRPYSRFRDADNTPLTYARYIILQLDMGEEEMGKVDKIIREHQDVLMALKLNNLERPVGIRSGNKELQAAYFPLDTFTRLEEEINWSPQTSADIYTQLEMNWKEFSRTRWSSFLRN”, “not soluble”. With “MSLGFHEVRFPTNLSFGSIGGPERRTEIVTLVNGFEERNSLWAHSRRRYDAGVALRSLDDIQALLAFFEARRGQLYGFRWKDWADYRSCPATASPGPKDQPLGIGDGISREFALVKTYRSGSEQYVRPVAKPVAGSVKVAVAGAVLVEGAGFSVDETRGLVTLAAAPAEGAAVTAGFEFDVPVRFDTDRIQISMASFQAGEVPSVPVMEVRVEGHHHHHH” the entry was “soluble”; with “MGKIQARIPDEVQEVASAVIKSTGLTVSDAVRMFMTRIARDRALPLDLFQPNLETLQAIEDAEMGRVERTSLDGLRAMIRDDKAEVCKSAK”, “not soluble”. Consider “AVINHDAVPVWPQPEPADATQALAVRFKPQLDVVNGCQPYPAVDPQGNTSGGLKPSGSQAAACRDMSKAQVYSRSGTYNGYYAIMYSWYMPKDSPSTGIGHRHDWENVVVWLDNAASANIVALSASAHSGYKKSFPADKSYLDGITAKISYKSTWPLDHELGFTTSAGKQQPLIQWEQMTQAARDALESTDFGNANVPFKSNFQDKLVKAFFQ”, for which the “soluble on expression in E. coli” value was “soluble”. The result for “SLTSEMIENIQSVKAYCWEEAMEKSGGGSGGGSGGGSGGGIENSHVKKDDIWPSGGQMTVKDLTAKYTEGGNAILENISFSISPGQRVGLLGRTGSGKSTLLSAFLRLLNTEGEIQIDGVSWDSITLEQWRKAFGVIPQKVFIFSGTFRKNLDPYEQWSDQEIWKVADEVGLRSVIEQFPGKLDFVLVDGGCVLSHGHKQLMCLARSVLSKAKILLLDEPSAHLDPVTYQIIRRTLKQAFADCTVILCEARIEAMLECDQFLVIEENKVRQYDSIQKLLNERSDFRQAISPSD” reads “soluble”.

For “MDVIKISPRGYCYGVVDAMVIAKNASLDKSLPRPIYILGMIVHNKHVTDAFEEEGILTLDGSNRLDILKQVDKGTVIFTAHGVSPEVRRIAEEKGLVAIDATCPDVTKTHNLILEMKEKGYHVIYIGKKGHPEPEGAVGVAPEIVHLVETEEDVKNLDIQSEKLIVTNQTTMSQWDVHDIMELVKEKYPHVEYHQEICLATQVRQEAVSEQAKKADLTIVVGDPKSNNSNRLAQVSEEIAGTKAYRIGDLSELKLEWLKGVNTVAVTAGASTPTPITKEVIRFLEQFDHEDPSTWTTEHNIPLKKILPKVKAKN”, the “soluble on expression in E. coli” value was “not soluble”.
